Patent US20200399344A1 (SHATTUCK LABS, published 2020)

Assays:
[1] = molecular target: T1, anti-mFc IgG antibody (plate-bound); experiment: ELISA: coat Anti-mFc (IgG) Jax #115-006-008, detection Anti-mFc (H+L) HRP
T1 construct: also called anti-Fc antibody
Method: To understand whether the Fc linkers from the native chimeric proteins can be accessed by anti-mouse Fc antibodies, ELISA-based assays were performed. For these assays, an anti-mFc IgG antibody was coated on plates and increasing amounts of the mPD-1-Fc-NKG2A and mSLAMF6-Fc-NKG2a chimeric proteins were added to the plates for capture by the plate-bound anti-mFc IgG antibody. The binding of the mPD-1-Fc-NKG2A and mSLAMF6-Fc-NKG2a chimeric proteins bound to the anti-mFc IgG antibody were detected using an anti-mFc HRP. An IgG antibody mouse Fc was used to generate a standard curve. mFc IgG was used as a positive control.

[2] = molecular target: T2, recombinant PD-L1 protein (mPD-L1-His) (mouse, UniProt Q9EP73 19-238); experiment: ELISA; mPD1-Fc-NKG2a coated in rising amounts, detection mPD-L1-His, Anti-His-6x-HRP
T2 construct: not shown: His tag
Method: Programmed death-ligand 1 (PD-L1) is a PD-1 ligand. To understand whether the PD-1 parts of the PD-1-Fc-NKG2A chimeric protein can bind PD-L1, ELISA-based assays were performed. […] The chimeric protein bound to the recombinant PD-L1 protein was detected using an anti-His-6× HRP.

[3] = molecular target: T3, recombinant mouse PD-L1-Fc (rmPD-L1-Fc) (mouse, UniProt Q9EP73 19-238); experiment: dual ELISA; coat mPDL1-Fc, mPD1-Fc-NKG2a titrated, detection HLA-E-His, Anti-His-6x-HRP; the signal needs both bindings
T3 construct: also called rPD-L1-Fc; not shown: Fc
Method: Increasing amounts of the mPD-1-Fc-NKG2A chimeric protein was added and detected using HLA-E-His. A chimeric protein comprising ECD of a type II transmembrane protein other than NKG2A was used as a negative control.
(§1) To understand whether the PD-1-Fc-NKG2A chimeric protein can binds simultaneously to both PD-L1 and HLA-E, the following ELISA experiment was carried out. Briefly, and recombinant PD-L1 (rPD-L1-Fc) protein was coated on plates. Increasing amounts of the PD-1-Fc-NKG2A chimeric protein was added to the plates for capture by the rPD-L1-Fc protein. Further, recombinant HLA-E (HLA-E-His) protein was added to the plate for capture by PD-1-Fc-NKG2A chimeric protein. The binding of the HLA-E-His protein was detected using an anti-His 6× HRP antibody.

[4] = molecular target: T4, recombinant human CD28-His (rhCD28-His) (human, UniProt P10747 19-152); experiment: ELISA: coat rhCD28-His (Acro), detection Anti-hFc-HRP
T4 construct: also called Human CD28-His protein; recombinant CD28 protein; not shown: His tag
Method: To understand whether the CD80 and CD86 parts of the hCD80-Fc-NKG2A and hCD86-Fc-NKG2A chimeric protein can bind CD28, ELISA-based assays were performed. Briefly, recombinant CD28 protein was coated on plates and increasing amounts of the hCD80-Fc-NKG2A, hCD86-Fc-NKG2A, and mCD48-Fc-NKG2A chimeric proteins, and recombinant human CD86-Fc (rhCD86-Fc) protein was added to the plates for capture by the plate-bound recombinant CD28 protein. The mCD48-Fc-NKG2A chimeric protein, and recombinant human CDrhCD86-Fc protein was used as negative and positive controls, respectively. The chimeric proteins bound to the recombinant CD28 protein was detected using an anti-human Fc HRP.

[5] = molecular target: T5, recombinant HLA-E-His protein (human, UniProt P13747 22-305, limits assumed); experiment: ELISA: the chimeric protein is the titrated coat (1:3), detection HLA-E-His (Novus NBP2-47435PEP), HRP Anti-6x-His-HRP
T5 construct: also called recombinant HLA-E (HLA-E-His); not shown: His tag
Method: In a complementary experiment, increasing amounts of the hCD48-Fc-NKG2A, hCD58-Fc-NKG2A, and hCD80-Fc-NKG2A chimeric proteins or a negative control protein was coated on plates. Recombinant HLA-E-His protein was added to the plates for capture by the plate-bound chimeric proteins or the negative control protein. The captured HLA-E-His protein was detected using an anti-6×-His-HRP antibody.

[6] = molecular target: T6, recombinant human CD28-Fc (rhCD28-Fc) protein (human, UniProt P10747 19-152); experiment: dual ELISA; coat rhCD28-Fc, hCD80-fc-NKG2a titrated, detection HLA-E-His, Anti 6x-His-HRP; the signal needs both bindings
T6 construct: not shown: Fc
Method: as §1, with “hCD80-Fc-NKG2A” for “PD-1-Fc-NKG2A”, “hCD28” for “PD-L1”, “hCD28 (rhCD28-Fc)” for “PD-L1 (rPD-L1-Fc)”, “recombinant human CD28-Fc (rhCD28-Fc)” for “rPD-L1-Fc”

[7] = molecular target: T7, anti-human IgG antibody (plate-bound); experiment: Fc ELISA: coat Anti-hFc (Jax), detect Anti-hFc-HRP (Jax)
T7 construct: also called anti-human Fc antibody

[8] = molecular target: T8, hPD-L1 expressed on CHO-K1/hPD-L1 cells (human, UniProt Q9NZQ7 19-290); experiment: flow cytometry cell binding assay, CHO-K1-Luc cells, detection Anti-hARC-PE
T8 construct: whole, on cells

[9] = molecular target: T9, PD-L1, plate-bound (Example 8) (Homo sapiens (Human), UniProt Q9NZQ7 19-238); experiment: Dual ELISA (capturing with PDL1): coat hPDL1-Fc (R&D), detect hHLA-E (Novus), HRP Anti-6X His
T9 construct: not shown: The Fc carrier of the vendor's hPD-L1-Fc (R&D) and any linker

[10] = molecular target: T5, recombinant HLA-E-His protein; experiment: Dual binding ELISA (capturing with HLA-E): coat hHLA-E-His (Novus), detect Anti-hPD1 (Sino), HRP Anti-mFc-HRP
Text: (§2) As shown in FIG. 9C and FIG. 9D, binding of the hNKG2A domain of the hPD-1-Fc-hNKG2A chimeric protein was characterized by capturing to, respectively, a plate-bound HLA-E. In FIG. 9C, the hPD-1-Fc-hNKG2A chimeric protein was detected using an anti-human PD-1 antibody in conjunction with an HRP conjugated anti-mouse Fc antibody. In FIG. 9D, the hPD-1-Fc-hNKG2A chimeric protein was directly detected via an HRP conjugated anti-mouse Fc antibody.

[11] = molecular target: T10, recombinant hPD-L1 (hPD-L1-Fc) protein (human, UniProt Q9NZQ7 19-239); experiment: dual ELISA; coat hPDL1-Fc, hPD1-fc-NKG2a titrated, detection HLA-E-His, Anti-His-6x-HRP; the signal needs both bindings
T10 construct: not shown: Fc
Method: as §1, with “hPD-1-Fc-NKG2A” for “PD-1-Fc-NKG2A”, “hPD-L1” for “PD-L1”, “hPD-L1 (hPD-L1-Fc)” for “PD-L1 (rPD-L1-Fc)”, “hPD-L1-Fc” for “rPD-L1-Fc”

[12] = molecular target: T5, recombinant HLA-E-His protein; experiment: ELISA (single-sided): coat hHLA-E-His (Novus), detect Anti-hFc (JAX); curve rises to about 0.4 at the highest concentration, no plateau
Text: as §2, with “9D, the hPD-1-Fc-hNKG2A chimeric protein was directly detected via an HRP conjugated anti-mouse Fc antibody.” left out

T5 sequence (P13747 22-305 limits assumed): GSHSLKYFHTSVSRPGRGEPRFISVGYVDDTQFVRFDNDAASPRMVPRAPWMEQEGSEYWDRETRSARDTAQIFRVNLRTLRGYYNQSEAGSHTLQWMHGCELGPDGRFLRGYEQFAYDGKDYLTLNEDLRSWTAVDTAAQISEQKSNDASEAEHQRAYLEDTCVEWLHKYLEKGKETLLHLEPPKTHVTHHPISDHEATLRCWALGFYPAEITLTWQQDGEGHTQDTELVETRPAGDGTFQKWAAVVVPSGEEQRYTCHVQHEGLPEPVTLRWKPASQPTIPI
T8 sequence (Q9NZQ7 19-290): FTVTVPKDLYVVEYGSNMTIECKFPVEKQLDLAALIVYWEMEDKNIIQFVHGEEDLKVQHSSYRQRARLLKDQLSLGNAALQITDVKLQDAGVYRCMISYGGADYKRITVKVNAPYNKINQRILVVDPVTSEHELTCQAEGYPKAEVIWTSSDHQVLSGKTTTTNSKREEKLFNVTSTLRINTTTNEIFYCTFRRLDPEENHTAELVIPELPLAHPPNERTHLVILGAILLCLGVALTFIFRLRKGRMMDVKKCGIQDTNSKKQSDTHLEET
T4 sequence (P10747 19-152 limits assumed): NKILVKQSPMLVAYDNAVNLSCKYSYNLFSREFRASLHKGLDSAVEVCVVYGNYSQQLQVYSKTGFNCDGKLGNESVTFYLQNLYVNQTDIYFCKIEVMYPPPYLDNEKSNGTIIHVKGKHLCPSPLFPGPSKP
T6 sequence (P10747 19-152 limits assumed): as above
T2 sequence (Q9EP73 19-238 limits assumed): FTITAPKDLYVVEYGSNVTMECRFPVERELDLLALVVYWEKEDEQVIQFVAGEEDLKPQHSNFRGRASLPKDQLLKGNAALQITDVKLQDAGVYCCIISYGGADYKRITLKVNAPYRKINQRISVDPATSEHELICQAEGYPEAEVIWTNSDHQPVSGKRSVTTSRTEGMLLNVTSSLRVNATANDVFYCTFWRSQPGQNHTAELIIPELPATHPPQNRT
T3 sequence (Q9EP73 19-238 limits assumed): as above
T9 sequence (Q9NZQ7 19-238 limits assumed): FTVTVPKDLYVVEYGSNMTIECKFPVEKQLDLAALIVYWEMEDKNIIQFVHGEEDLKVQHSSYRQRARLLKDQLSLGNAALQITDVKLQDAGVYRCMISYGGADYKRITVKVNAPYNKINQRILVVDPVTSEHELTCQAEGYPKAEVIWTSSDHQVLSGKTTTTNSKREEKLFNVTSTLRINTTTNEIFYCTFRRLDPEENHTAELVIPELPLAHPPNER
T10 sequence (Q9NZQ7 19-239 limits assumed): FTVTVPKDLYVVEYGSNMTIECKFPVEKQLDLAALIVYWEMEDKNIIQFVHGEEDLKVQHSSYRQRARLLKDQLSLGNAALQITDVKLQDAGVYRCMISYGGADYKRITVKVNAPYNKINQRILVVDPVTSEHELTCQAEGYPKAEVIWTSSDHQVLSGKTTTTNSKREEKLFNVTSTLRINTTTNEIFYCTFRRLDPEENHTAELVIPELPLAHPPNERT

B1: mouse PD-1-Fc-NKG2A chimeric protein (Fc fusion)
chain: SGWLLEVPNGPWRSLTFYPAWLTVSEGANATFTCSLSNWSEDLMLNWNRLSPSNQTEKQAAFCNGLSQPVQDARFQIIQLPNRHDFHMNILDTRRNDSGIYLCGAISLHPKAKIEESPGAELVVTERILETSTRYPSPSPKPEGRFQGMVPRDCGCKPCICTVPEVSSVFIFPPKPKDVLTITLTPKVTCVVVDISKDDPEVQFSWFVDDVEVHTAQTQPREEQFNSTFRSVSELPIMHQDWLNGKEFKCRVNSAAFPAPIEKTISKTKGRPKAPQVYTIPPPKEQMAKDKVSLTCMITDFFPEDITVEWQWNGQPAENYKNTQPIMDTDGSYFVYSKLNVQKSNWEAGNTFTCSVLHEGLHNHHTEKSLSHSPGIIEGRMDTPYTEAKAQINSSMTRTHRDINYTLSSAQPCPHCPKEWISYSHNCYFIGMERKSWNDSLVSCISKNCSLLYIDSEEEQDFLQSLSLISWTGILRKGRGQPWVWKEDSIFKPKIAEILHDECNCAMMSASGLTADNCTTLHPYLCKCKFPI
notes: also called mPD-1-Fc-NKG2A; mPD1-Fc-NKG2A
[1]
  EC50 (read off the curve): ~0.08 µg/mL
[2]
  EC50 (read off the curve): ~20 µg/mL
[3]
  EC50 (read off the curve): ~40 µg/mL

B2: human CD80-Fc-NKG2A chimeric protein (Fc fusion)
chain: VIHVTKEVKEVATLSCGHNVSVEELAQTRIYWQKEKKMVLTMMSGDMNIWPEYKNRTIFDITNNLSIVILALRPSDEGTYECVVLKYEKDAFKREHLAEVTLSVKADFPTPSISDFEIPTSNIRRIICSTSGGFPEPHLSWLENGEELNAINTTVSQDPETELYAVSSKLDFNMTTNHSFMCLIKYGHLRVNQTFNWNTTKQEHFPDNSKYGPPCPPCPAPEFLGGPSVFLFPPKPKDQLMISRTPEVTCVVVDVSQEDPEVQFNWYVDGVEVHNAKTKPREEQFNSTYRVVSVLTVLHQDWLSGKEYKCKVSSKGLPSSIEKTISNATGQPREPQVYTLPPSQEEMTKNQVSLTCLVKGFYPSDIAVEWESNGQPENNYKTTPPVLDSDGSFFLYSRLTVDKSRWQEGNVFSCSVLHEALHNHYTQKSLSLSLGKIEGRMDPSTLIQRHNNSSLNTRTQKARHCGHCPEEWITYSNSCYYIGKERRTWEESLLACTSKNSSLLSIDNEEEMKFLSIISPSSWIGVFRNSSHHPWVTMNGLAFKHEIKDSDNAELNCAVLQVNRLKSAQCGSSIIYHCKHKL
notes: also called hCD80-Fc-NKG2A
[4]
  binding result: binds
[5]
  EC50 (read off the curve): ~0.9 µg/mL
[6]
  binding result: binds

B3: human PD-1-Fc-hNKG2A chimeric protein (Fc fusion)
chain: not shown
notes: the Fc of the tested construct is therefore uncertain; also called hPD-1-Fc-hNKG2A; hPD-1-Fc-NKG2A
[7]
  EC50: 0.00964 µM
[8]
  EC50 (read off the curve): ~1 µg/mL
[9]
  EC50: 0.0256 µM
[10]
  EC50: ~0.175 µM
[11]
  EC50 (read off the curve): ~20 µg/mL
[12]
  EC50: ~24200 µM
